Drawing on patent US20220332804A1 (CSL INNOVATION, published 2022), this text covers Fold diff for one molecule.

Holding throughout (experiment): SPR; KD relative to WT C2;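 further: biacore SPR at 37 °C, anti-C2 mAbs captured on an anti-human IgG chip, alanine or serine C2 surface mutants tested, KD from 1:1 fit compared with wild-type C2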
(In general: SPR reads the build-up and loss of mass on a sensor chip optically.)

One experiment addresses T1, human C2 H446A (human, UniProt P06681 21-752).
T1 sequence: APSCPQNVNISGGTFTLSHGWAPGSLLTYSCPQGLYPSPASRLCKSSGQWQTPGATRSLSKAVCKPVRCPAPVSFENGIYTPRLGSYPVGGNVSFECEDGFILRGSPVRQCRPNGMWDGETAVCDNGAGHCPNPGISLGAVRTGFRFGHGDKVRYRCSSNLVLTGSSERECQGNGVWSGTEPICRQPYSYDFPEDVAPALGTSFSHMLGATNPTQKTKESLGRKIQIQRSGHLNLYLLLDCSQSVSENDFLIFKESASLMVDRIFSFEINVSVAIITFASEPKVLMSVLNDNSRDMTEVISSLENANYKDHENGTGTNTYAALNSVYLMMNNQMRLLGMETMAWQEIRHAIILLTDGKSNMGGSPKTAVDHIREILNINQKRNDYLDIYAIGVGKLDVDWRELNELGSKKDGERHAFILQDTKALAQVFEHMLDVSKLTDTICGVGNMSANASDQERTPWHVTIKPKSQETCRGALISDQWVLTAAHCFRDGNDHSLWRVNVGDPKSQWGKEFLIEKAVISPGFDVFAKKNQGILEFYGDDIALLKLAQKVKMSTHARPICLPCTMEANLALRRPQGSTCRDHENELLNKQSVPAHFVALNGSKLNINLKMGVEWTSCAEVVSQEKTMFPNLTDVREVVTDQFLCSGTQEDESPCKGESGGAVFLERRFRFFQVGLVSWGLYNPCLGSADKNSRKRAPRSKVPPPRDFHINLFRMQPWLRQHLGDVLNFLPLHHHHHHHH

The target of a further experiment is T2, human C2 H451A (human, UniProt P06681 21-752).
T2 sequence: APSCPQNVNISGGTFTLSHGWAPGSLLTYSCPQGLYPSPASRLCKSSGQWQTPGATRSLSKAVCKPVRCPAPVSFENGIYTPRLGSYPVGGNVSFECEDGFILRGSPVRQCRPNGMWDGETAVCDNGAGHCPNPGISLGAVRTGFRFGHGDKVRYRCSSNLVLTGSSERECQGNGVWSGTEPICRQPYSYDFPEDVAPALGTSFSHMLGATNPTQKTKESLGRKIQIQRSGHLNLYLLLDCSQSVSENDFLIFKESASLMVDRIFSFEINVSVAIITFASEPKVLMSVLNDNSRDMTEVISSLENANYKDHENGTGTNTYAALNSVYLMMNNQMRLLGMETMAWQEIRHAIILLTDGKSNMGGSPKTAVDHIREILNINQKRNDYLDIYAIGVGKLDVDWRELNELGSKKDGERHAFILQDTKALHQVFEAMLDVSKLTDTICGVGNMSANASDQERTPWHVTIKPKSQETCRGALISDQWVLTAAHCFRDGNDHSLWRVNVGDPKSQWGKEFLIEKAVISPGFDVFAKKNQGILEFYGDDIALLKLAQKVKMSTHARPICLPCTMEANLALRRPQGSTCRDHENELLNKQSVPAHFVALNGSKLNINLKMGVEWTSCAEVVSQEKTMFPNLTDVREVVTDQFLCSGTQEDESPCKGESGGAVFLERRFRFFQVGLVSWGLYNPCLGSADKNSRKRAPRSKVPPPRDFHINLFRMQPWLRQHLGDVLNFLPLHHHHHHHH

A further experiment concerns the target T3, human C2 D417A (human, UniProt P06681 21-752).
T3 sequence: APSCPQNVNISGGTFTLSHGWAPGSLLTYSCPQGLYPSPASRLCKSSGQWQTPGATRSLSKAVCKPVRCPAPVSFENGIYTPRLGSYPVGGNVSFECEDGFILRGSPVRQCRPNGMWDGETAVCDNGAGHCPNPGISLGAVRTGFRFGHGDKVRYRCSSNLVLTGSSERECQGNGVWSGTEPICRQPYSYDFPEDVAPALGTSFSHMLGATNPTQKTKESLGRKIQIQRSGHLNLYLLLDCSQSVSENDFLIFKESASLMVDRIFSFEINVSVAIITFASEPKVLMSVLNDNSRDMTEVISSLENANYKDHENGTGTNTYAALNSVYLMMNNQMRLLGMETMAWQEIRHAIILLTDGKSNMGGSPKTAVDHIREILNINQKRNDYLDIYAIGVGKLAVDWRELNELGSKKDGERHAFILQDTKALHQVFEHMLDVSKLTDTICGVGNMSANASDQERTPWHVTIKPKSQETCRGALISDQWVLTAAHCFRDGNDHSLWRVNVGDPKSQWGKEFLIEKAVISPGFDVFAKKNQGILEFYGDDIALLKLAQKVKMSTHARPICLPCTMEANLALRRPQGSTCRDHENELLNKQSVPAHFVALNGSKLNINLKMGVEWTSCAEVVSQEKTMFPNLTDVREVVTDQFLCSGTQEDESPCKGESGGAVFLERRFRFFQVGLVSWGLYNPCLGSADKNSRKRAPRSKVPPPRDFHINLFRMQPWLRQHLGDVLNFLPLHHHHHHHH

The target of a further experiment is T4, human C2 A470S (human, UniProt P06681 21-752).
T4 sequence: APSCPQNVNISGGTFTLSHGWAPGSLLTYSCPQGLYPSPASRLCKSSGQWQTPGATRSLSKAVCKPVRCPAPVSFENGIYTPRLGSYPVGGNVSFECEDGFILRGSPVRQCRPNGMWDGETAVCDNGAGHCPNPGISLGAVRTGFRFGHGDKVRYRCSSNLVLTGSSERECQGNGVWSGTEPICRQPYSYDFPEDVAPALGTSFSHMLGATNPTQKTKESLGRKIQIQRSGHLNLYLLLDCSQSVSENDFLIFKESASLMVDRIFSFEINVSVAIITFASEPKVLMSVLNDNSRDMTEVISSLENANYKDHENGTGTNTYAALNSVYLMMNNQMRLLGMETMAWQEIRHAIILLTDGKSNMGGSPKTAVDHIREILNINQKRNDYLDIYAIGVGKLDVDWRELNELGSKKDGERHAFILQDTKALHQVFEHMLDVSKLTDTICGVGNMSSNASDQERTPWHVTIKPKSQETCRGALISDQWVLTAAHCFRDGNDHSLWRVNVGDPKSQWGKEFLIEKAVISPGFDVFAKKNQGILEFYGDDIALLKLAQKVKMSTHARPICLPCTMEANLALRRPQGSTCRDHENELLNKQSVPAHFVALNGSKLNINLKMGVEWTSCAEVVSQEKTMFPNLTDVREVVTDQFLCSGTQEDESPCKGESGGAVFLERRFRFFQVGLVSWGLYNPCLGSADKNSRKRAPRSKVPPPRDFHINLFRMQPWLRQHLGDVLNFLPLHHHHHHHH

B1: RF16-214 (antibody, V domains shown)
VH: EVQLLESGGGLVQPGGSLRLSCAASGFTFSWYQMMWVRQAPGKGLEWVSRIYPSGGGTAYADSVKGRFTISRDNSKNTLYLQMNSLRAEDTAVYYCARDAGYGDNWGQGTLVTVSS
VL: QSALTQPPSVSVSPGQTASITCSGDKLGEKYASWYQQKAGQSPVMVIYQDRKRPSGIPERFSGSNSGNTATLTISGTQAMDEADYYCQAWDTRAVVFGGGTKLTVLG
With B1, the Fold diff with human C2 H446A came out at 5 fold; with human C2 H451A, 4 fold; with human C2 D417A it was 2 fold; in the experiment with human C2 A470S, 1 fold.
